# Biological target: T1, human serum albumin (human, UniProt P02768 25-609)
# T1 construct: Antigen in the SPR assay
# Test: SPR
# Experimental: The binding affinity of the provided VHH antibodies to human serum albumin was measured with surface plasmon resonance.
binder,measurement,value
"VHH antibody of SEQ ID NO: 1 (VHH, Isolated from a phage library; also called WT VHH) VHH: QVQLVESGGGLVQAGDSLRLSCAASGRTFSGYAMGWFRQAPGKEREFVARINWSGTLTYYADSVKGRFTGSRDNAKNTVYLQMNSLKPEDTAVYYCAQRGDSGSNYDPSGYSYWGQGTQVTVSS",Kd,261 nM
same,koff,0.371 s⁻¹
same,kon,1.42e+06 M⁻¹ s⁻¹
"VHH antibody in which glycine in position 36, arginine in position 50, glycine in position 78, and serine in position 116 of SEQ ID NO: 1 were substituted (SEQ … (VHH, Text says asparagine at IMGT 36; also called G36D/R50L/G78A/S116R mutant) VHH: QVQLVESGGGLVQAGDSLRLSCAASGRTFSDYAMGWFRQAPGKELEFVARINWSGTLTYYADSVKGRFTASRDNAKNTVYLQMNSLKPEDTAVYYCAQRGDSGSNYDPSGYRYWGQGTQVTVSS",Kd,380 nM
same,koff,0.355 s⁻¹
same,kon,933000 M⁻¹ s⁻¹
"VHH antibody in which arginine in position 50 of SEQ ID NO: 1 was substituted (SEQ ID NO: 4) (VHH, Text says asparagine at IMGT 50; Expressed in E. coli; also called R50L mutant) VHH: QVQLVESGGGLVQAGDSLRLSCAASGRTFSGYAMGWFRQAPGKELEFVARINWSGTLTYYADSVKGRFTGSRDNAKNTVYLQMNSLKPEDTAVYYCAQRGDSGSNYDPSGYSYWGQGTQVTVSS",Kd,157 nM
same,koff,0.303 s⁻¹
same,kon,1.93e+06 M⁻¹ s⁻¹
"VHH antibody in which glycine in position 36, glycine in position 78, and serine in position 116 of SEQ ID NO: 1 were substituted (SEQ ID NO: 10) (VHH, Text says asparagine at IMGT 36; also called G36D/G78A/S116R mutant) VHH: QVQLVESGGGLVQAGDSLRLSCAASGRTFSDYAMGWFRQAPGKEREFVARINWSGTLTYYADSVKGRFTASRDNAKNTVYLQMNSLKPEDTAVYYCAQRGDSGSNYDPSGYRYWGQGTQVTVSS",Kd,365 nM
same,koff,0.411 s⁻¹
same,kon,1.13e+06 M⁻¹ s⁻¹
"VHH antibody in which glycine in position 36 of SEQ ID NO: 1 was substituted (SEQ ID NO: 3) (VHH, Text says asparagine at IMGT 36; Expressed in E. coli; also called G36D mutant) VHH: QVQLVESGGGLVQAGDSLRLSCAASGRTFSDYAMGWFRQAPGKEREFVARINWSGTLTYYADSVKGRFTGSRDNAKNTVYLQMNSLKPEDTAVYYCAQRGDSGSNYDPSGYSYWGQGTQVTVSS",Kd,61.4 nM
same,koff,0.125 s⁻¹
same,kon,2.04e+06 M⁻¹ s⁻¹
"VHH antibody in which glycine in position 78 of SEQ ID NO: 1 was substituted with alanine (SEQ ID NO: 5) (VHH, Expressed in E. coli; also called G78A mutant) VHH: QVQLVESGGGLVQAGDSLRLSCAASGRTFSGYAMGWFRQAPGKEREFVARINWSGTLTYYADSVKGRFTASRDNAKNTVYLQMNSLKPEDTAVYYCAQRGDSGSNYDPSGYSYWGQGTQVTVSS",Kd,13200 nM
same,koff,0.806 s⁻¹
same,kon,61200 M⁻¹ s⁻¹
"VHH antibody in which serine in position 116 of SEQ ID NO: 1 was substituted with arginine (SEQ ID NO: 6) (VHH, Expressed in E. coli; also called S116R mutant) VHH: QVQLVESGGGLVQAGDSLRLSCAASGRTFSGYAMGWFRQAPGKEREFVARINWSGTLTYYADSVKGRFTGSRDNAKNTVYLQMNSLKPEDTAVYYCAQRGDSGSNYDPSGYRYWGQGTQVTVSS",Kd,35.6 nM
same,koff,0.591 s⁻¹
same,kon,1.66e+07 M⁻¹ s⁻¹
"VHH antibody in which glycine in position 36, arginine in position 50, and serine in position 116 of SEQ ID NO: 1 were substituted (SEQ ID NO: 9) (VHH, Text says asparagine at IMGT 36; also called G36D/R50L/S116R mutant) VHH: QVQLVESGGGLVQAGDSLRLSCAASGRTFSDYAMGWFRQAPGKELEFVARINWSGTLTYYADSVKGRFTGSRDNAKNTVYLQMNSLKPEDTAVYYCAQRGDSGSNYDPSGYRYWGQGTQVTVSS",Kd,77.9 nM
same,koff,0.0879 s⁻¹
same,kon,1.13e+06 M⁻¹ s⁻¹
"VHH antibody in which glycine in position 36 and serine in position 116 of SEQ ID NO: 1 were substituted (SEQ ID NO: 7) (VHH, Text says asparagine at IMGT 36; also called G36D/S116R mutant) VHH: QVQLVESGGGLVQAGDSLRLSCAASGRTFSDYAMGWFRQAPGKEREFVARINWSGTLTYYADSVKGRFTGSRDNAKNTVYLQMNSLKPEDTAVYYCAQRGDSGSNYDPSGYRYWGQGTQVTVSS",Kd,44.7 nM
same,koff,0.0643 s⁻¹
same,kon,1.44e+06 M⁻¹ s⁻¹

# Reference: US20190375824A1 (PANASONIC INTELLECTUAL PROPERTY MANAGEMENT, published 2019)
